Source: publication PMC12803839

Molecular target: pyruvate kinase M2 (human (endogenous in HK-2)) (UniProt P14618)
Experiment: cross-linking; proteins of HK-2 cells treated with vehicle or compound 3k; DSS 1 mM, room temperature, 30 min, quenched with 20 mM Tris; SDS-PAGE and Western blot for PKM2; more monomer and less dimer and tetramer with compound 3k

Sequence of pyruvate kinase M2, P14618 1-531 (natural protein; other documents disagree on this pair) (P14618 whole entry): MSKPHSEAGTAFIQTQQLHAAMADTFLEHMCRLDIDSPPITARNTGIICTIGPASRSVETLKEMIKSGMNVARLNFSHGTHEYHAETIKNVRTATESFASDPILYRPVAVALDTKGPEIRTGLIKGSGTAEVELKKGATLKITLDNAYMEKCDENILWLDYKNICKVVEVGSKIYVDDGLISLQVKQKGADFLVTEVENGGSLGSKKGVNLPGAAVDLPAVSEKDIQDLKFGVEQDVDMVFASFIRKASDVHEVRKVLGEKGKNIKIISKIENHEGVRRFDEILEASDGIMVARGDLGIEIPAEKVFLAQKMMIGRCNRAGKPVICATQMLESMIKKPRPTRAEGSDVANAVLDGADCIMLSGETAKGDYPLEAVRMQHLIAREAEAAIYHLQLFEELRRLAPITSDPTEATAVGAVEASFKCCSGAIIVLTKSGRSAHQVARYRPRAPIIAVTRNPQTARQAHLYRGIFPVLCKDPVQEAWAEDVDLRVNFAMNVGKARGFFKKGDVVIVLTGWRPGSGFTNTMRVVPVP

**Q.** With “pyruvate kinase M2, P14618 1-531 (natural protein; other documents disagree on this pair)” as the substance, how does the stoichiometry N read?
**A.** The stoichiometry N was 2.
